Laboratory results from publication PMC2724291 (Nucleic Acids Research, 2009).
Where two headings read alike, the source gives them in different places.

What was measured:
SEC [1] = target: the molecule itself; assay: SEC
SEC [2] = target: the molecule itself; assay: SEC; remark: listed apart in the source

B1: wild-type ϕC31 integrase (Int) (enzyme, phage ϕC31, UniProt Q9T221 1-605, looked up)
chain: MDTYAGAYDRQSRERENSSAASPATQRSANEDKAADLQREVERDGGRFRFVGHFSEAPGTSAFGTAERPEFERILNECRAGRLNMIIVYDVSRFSRLKVMDAIPIVSELLALGVTIVSTQEGVFRQGNVMDLIHLIMRLDASHKESSLKSAKILDTKNLQRELGGYVGGKAPYGFELVSETKEITRNGRMVNVVINKLAHSTTPLTGPFEFEPDVIRWWWREIKTHKHLPFKPGSQAAIHPGSITGLCKRMDADAVPTRGETIGKKTASSAWDPATVMRILRDPRIAGFAAEVIYKKKPDGTPTTKIEGYRIQRDPITLRPVELDCGPIIEPAEWYELQAWLDGRGRGKGLSRGQAILSAMDKLYCECGAVMTSKRGEESIKDSYRCRRRKVVDPSAPGQHEGTCNVSMAALDKFVAERIFNKIRHAEGDEETLALLWEAARRFGKLTEAPEKSGERANLVAERADALNALEELYEDRAAGAYDGPVGRKHFRKQQAALTLRQQGAEERLAELEAAEAPKLPLDQWFPEDADADPTGPKSWWGRASVDDKRVFVGLFVDKIVVTKSTTGRGQGTPIEKRASITWAKPPTDDDEDDAQDGTEDVAA
binding result (SEC [1]): binds

B2: hMBP-γ (H1 and H2 of the putative coiled-coil motif of ϕC31 Int fused to histidine-tagged maltose-binding protein) (domain or fragment, phage ϕC31, UniProt Q9T221 445-524, looked up)
chain: GKLTEAPEKSGERANLVAERADALNALEELYEDRAAGAYDGPVGRKHFRKQQAALTLRQQGAEERLAELEAAEAPKLPLD
stoichiometry N (SEC [2]): 2

B3: hMBP-γ^E449K (domain or fragment, phage ϕC31, UniProt Q9T221 445-524, looked up)
chain: GKLTKAPEKSGERANLVAERADALNALEELYEDRAAGAYDGPVGRKHFRKQQAALTLRQQGAEERLAELEAAEAPKLPLD
binding result (SEC [2]): binds
